Results from the DeepSol protein solubility set.

Test: soluble on expression in E. coli; label from the status in PepcDB or PDB records

Row | Sequence | soluble on expression in E. coli
1 | MSLMKRQFEDVTRIVIKIGTSSLVLPTGKINLEKIDQLAFVISSLMNKGKEVILVSSGAMGFGLDILKMEKRPTNLAKQQAVSSVGQVAMMSLYSQIFAYYQTNVSQILLTRDVVVFPESLANVTNAFESLISLGIVPIVNENDAVSVDEMDHATKFGDNDRLSAVVAGITKADLLIMLSDIDGLFDKNPTIYEDAQLRSHVANITQEIIASAGGAGSKFGTGGMLSKVQSAQMVFENKGQMVLMNGANPRDILRVLEGQPLGTWFKQIEEVRHDEGHHHHHH | soluble
2 | MSLMNAEQGVCAWAMNHPLEREYHDKEWGRAVHDDTKLFEFLTLEGAQAGLSWLTVLKKREGYRQAFLGYDLQRLAQCDESHVEQIIAEYDVVKHRGKIASVFSNARAALALQQEFGSLDAALWQFVGGQPKINRWVSMSDVPASTEESKAMSKFLKKRGFKFVGETICYAFMQACGLVNDHLVGCPNHSNADKLEGGSHHHHHH | soluble
3 | MSLMYKVLLVDDEYMILQGLTMIIDWQALGFEVVQTARSGKEALTYLTQYPVDVMISDVTMPGMTGLDLIEAAKTYHPQLQTLILSGYQEFSYVQKAMELETKGYLLKPVDKAELQAKMKQFKDCLDAQQAESIRQEAYHDSLLTLWLTDELSEKEFQQLSQGLPAAALIGFTVLYLDCQEWQAAIDAYFEQEGQPFYLKKEEDKKVYLAVLLGKTDQAKAFTYDLQKRFSRNMHQLILGETVDDWENVYESYNQVLKSLFYNCEVSPIRAKDKSKIELPESRLQFFAFNKALMIGDEPTILSKLEAIFDEMKTLNFSPEDVKHVSFLLFSDIYRQFPILDKMTYLSMVKTIHDSQSIDRILRELKKVLDVTNQNNSPEKRYSDLVSETIDCIRKEYHQELTLKAIADRLHVNGVYLGQCFKNETERSFTQYLNHVRIQKAQQLLLYTNQSINEIAYETGYNTNHYFIKMFKKLNGLSPKEFRDRYKDNYQAEGHHHHHH | soluble
4 | MSLNATIVDIARRANVTNITVSRTFNQPGLVKQETREKIHAIAKELNYVPNAFAQGLKRSSSQIIGIVTSSMYNPFYSELIQTVSRIARTQCYQIMLFDTDGSEEAEMEAIQALFGYKACGILLSPVRDDKNYQPAYLDLAETYRVPLILIDRDIYNRQLSGVFLNNKEIGLLAGKYLSEQPERKMLIIGGPAESEITRVRIEGIINALENKKNDVHIINGDYDFISQEAAVRDYLSSPQNQPDYIIGLNGILTLGAIAICHELKIYNNIKFFSIDEPPKAADYGLHIAGVYHDTQMLGEIAAELLFNAIKKPHNDQAVRREFFTGSLLTHEGHHHHHH | soluble
5 | MSLNDNPAWFNNPRKRAIPNSIIKRSNGQSLSPVRSDSADVPAFSNSNGFNNVTFGSKKDPRILKNVSPNDNNSANNNAHSSDLGTVVFDSNEAPPKTSLADWQKEDGIFSSKTDNIEDPNLSSNITFDGKPTATPSPFRPLEKTSRILNFFDKNTKTTPNTASSEASAGSKEGASTNWDDHAIIIFGYPETIANSIILHFANFGEILEDFRVIKDFKKLNSKNMSKSPSLTAQKYPIYTGDGWVKLTYKSELSKSRALQENGIIMNGTLIGCVSYSPAALKQLASLKKSEEIINNKTSSEGHHHHHH | soluble
6 | MSLNEFPSRPIKLVVPYPAGGTLDIVGRNIAKMAEASLGEPIVADNVPGASGVIAHSQIARAPADGYTIGMSGLSPLVLAPHQYKNLPYSPLKDLSYVACFGETPLVLNVAISLPVKTVQELVAYAKANPGKLNYGSAGIGNASYLAAALFARQAGIEISHVPYKGNAPAMIDLVGGQIPILFDPPQTTLPQAATGKVRPLAVTSSQRFPGLPTLPTIAEAGWANYEFSIWYAMVAPAGVTLPPKNVSLAEWFNASKENGNDEDSAGALHAGIQAAARATAGTTPAARPCSVREGHHHHHH | not soluble
7 | MSLNFTEDGTLPLLGSKDAKIAIIEFSDFQCPYCKRFTDSAFKQIKENYIDTGKVQYIARDFPLSFHAKAMGAAIAATCSLHQNSYWPMRDMLFSNVKDLGEELYQKAATDLSLNLEEFNKCMKDKSIANKVEQDLTLGKSLGIRGTPSFLIGRVENDQLIEPQIVVGAQRYAVFESLLEQLSNSDKAKEGHHHHHH | soluble
8 | MSLNGSMVYGDFIRNQEVRKRITKEELGIEEDEIPERVVVTPMPFNTQFPKNFEDTLTNLGIKVNRLKVEDQILRQFGGNLLLEKDGNRGFIAFIGRGLIDFTERIRILATVSRIKDILFIGTAGSLSNEILIGDLNIPKYAIPFENVSDFYADPTIAIPQADEKLLNEVYEYAEETGVKTHSTLHATLLFPYSETTEFLNYLLNIGVSTIDMEVSAFYKMSRFYGKRAVAVLRISDMPLIELHKQEELIKARREIAVNAVFRITLRFLKLEGHHHHHH | soluble
9 | MSLNHTAVNTAQAIILRDLVDALLFEDIAGIVSNSEITKENGQTLLIYERETQQIKIPVYFSALNMFRYESSQPITIEGRVSKQPLTAAEFWQTIANMNCDLSHEWEVARVEEGLTTAATQLAKQLSELDLASHPFVMSEQFASLKDRPFHPLAKEKRGLREADYQVYQAELNQSFPLMVAAVKKTHMIHGDTANIDELENLTVPIKEQATDMLNDQGLSIDDYVLFPVHPWQYQHILPNVFAKEISEKLVVLLPLKFGDYLSSSSMRSLIDIGAPYNHVKVPFAMQSLGALRLTPTRYMKNGEQAEQLLRQLIEKDEALAKYVMVCDETAWWSYMGQDNDIFKDQLGHLTVQLRKYPEVLAKNDTQQLVSMAALAANDRTLYQMICGKDNISKNDVMTLFEDIAQVFLKVTLSFMQYGALPELHGQNILLSFEDGRVQKCVLRDHDTVRIYKPWLTAHQLSLPKYVVREDTPNTLINEDLETFFAYFQTLAVSVNLYAIIDAIQDLFGVSEHELMSLLKQILKNEVATISWVTTDQLAVRHILFDKQTWPFKQILLPLLYQRDSGGGSMPSGLTTVPNPMVTYDEGHHHHHH | soluble
10 | MSLNISFIASNTLHELAAFLEKLNNIREHHVGFCGEKGSEIKATLERDFSDIGVSKSFIVGYDGMEIKGAVGLDVDTKEESAEVWGPFVDEDDPEMWLDTATILWQQLIDSLTVPVSTFQFFINQHNVNAKKFILKLNGMEKGDHDILTCDRTQFYPPLNHDVRLFTNNHTQSFKKLHDSLFPQTYYDAEEILKKINEPTNKLLIIEKEQIVIGYAYVEVEPEHGEGQIEYIGIAPDYRRQGLATQLLTNALHVLFSYPTVEDITLCVSKQNTKAIRLYQAAGFKKERQLTYFELNVDGLDNRRGRGEGHHHHHH | soluble
11 | MSLNIYRAASVLIDEAGKNDFEISLLGKVNDLVYDTKNEYLYAVSQKGLLAKLNASNGDVIWRQSIAPETSQLNYNPVTNFIITVDKDYLYIWNSKNGILDRKIELADGKGKLFEVNKGFVYLNPHTRKFIELDLQASFSISIERDLQLDAISFLTYAEKNYVLFKRDGQFVLQALDHNYAVYGPETVLNVPENAQLLVTEKDVIIYSSNGVIYGIHVSMADISQLLIDEYKTFEWSSIPGKRHGYSITVDSQSTPVTYLFVIIDSEFVLIDEYIHEDTEALGYIHMEDNQTFSRVFAVANQIKFAPATVITIPNQLSRPVFRLFTFAEGEISAIVILDDGTFFSFSNTELVWKREEALAYAINPSILPTTLLTSYQKSIQDEENSSEGHHHHHH | soluble
12 | MSLNKIIHHYEVFKDFYGMEEPIEQIVGFLKHAAQGLEETKQVLYLLGPVGGGKSSIAEKLKDLMERIPFYAIKGSPVFESPLSLFNPLEDGELLRERFGIPTRYLRYLMSPWAVKRLQEYNGDISKFRVIKVKPSRLKQIAIAKTEPGDENNQDISSLVGKVDIRKLEEFSQDDPDAYSYSGGLCRANRGLLEFVEMFKAPIKVLHPLLTATQEGNYNATEGLSAIPFEGIILAHSNESEWQSFRNNKNNEAFIDRINIVKVPYCLRVSEEIKIYQKLIHNSSLANAPCAPGTLDMLAQFSVLTRLKEPQNSSIYSKMRVYNGESLKDTDPKAKSYQEYRDFAGVDEGMSGISTRFAFKILSKVFNFDHTEVAANPVHLMYVLERQIEQEQFPQELHETYLNFIKEYLATKYVDFIGKEIQTAYLESYSEYGQNIFDRYITYADFWIQDQDYRDPDTGEIFDRALLNLELEKIEKPAGISNPKDFRNEVVNFVLRARANNRGKNPVWNSYEKLKSVIEKKMFTNTEDLLPVISFNAKASEEDKKKHEEFISRMVEKGYTRKQVRLLCEWYLRVRKSQEGHHHHHH | not soluble
13 | MSLNKLCMYLERPELYKQSEINFWDDEYISKQLLKAHLDTNFEGASRNFNFIEDSVNWIVTVANPANYPKLLDLGCGPGLYAEKFAQKGYKVTGIDFSKRSINYAQNRNKETNLNINYLFQSYLNMNYNEEFDLATLIYCDYGALSTENRRLLMEKIYDSLKPGGKLILDVFTINKYNNFEEIKYWEINEDGGFWSNEKYMCLQDNCKYNDYNTLEQTLVITEKDENVFYVWNHYFSKESFLLEVENIGFKSVEFFSNVKGEAYSDDSMTMGLVLQKEGHHHHHH | soluble
14 | MSLNLREFKEFIDNEMIVILGQMDSPTQIFEHVFLGSEWNASNLEDLQNRGVRYILNVTREIDNFFPGVFEYHNIRVYDEEATDLLAYWNDTYKFISKAKKHGSKCLVHCKMGVSRSASTVIAYAMKEYGWNLDRAYDYVKERRTVTKPNPSFMRQLEEYQGILLASKEGHHHHHH | not soluble
15 | MSLNNQDISIGKLSRLKIWITDNHLSDDQWSNTKKFIIIKITTEDGIEGWGEAFSINFREKGIAIIIKELFREISNIPNLSIKSFYNKISLLSDGHRGLDFSSATSAIEIALWDISGKLKNLPLNSLLTKSPKPNVPIYATCWSDLKKDTNDYLRQIEKFYGKKYGGIKIYPMLDSLSISIQFVEKVREIVGDELPLMLDLAVPEDLDQTKSFLKEVSSFNPYWIEEPVDGENISLLTEIKNTFNMKVVTGEKQSGLVHFRELISRNAADIFNPDISGMGGLIDIIEISNEASNNGIFISPHCWNSMSVSASAMLHVCSSIPNSEKAEIFPDYINFSKKFCELPFDIIDNKAHINKSAGLGIVIHEDILSELSIYSLDEKSNDEGHHHHHH | soluble
16 | MSLNNRSETMKYKRIVFKVGTSSLTNEDGSLSRSKVKDITQQLAMLHEAGHELILVSSGAIAAGFGALGFKKRPTKIADKQASAAVGQGLLLEEYTTNLLLRQIVSAQILLTQDDFVDKRRYKNAHQALSVLLNRGAIPIINENDSVVIDELKVGDNDTLSAQVAAMVQADLLVFLTDVDGLYTGNPNSDPRAKRLERIETINREIIDMAGGAGSSNGTGGMLTKIKAATIATESGVPVYICSSLKSDSMIEAAEETEDGSYFVAQEKGLRTQKQWLAFYAQSQGSIWVDKGAAEALSQHGKSLLLSGIVEAEGVFSYGDIVTVFDKESGKSLGKGRVQFGASALEDILRSQKAKGVLIYRDDWISITPEIQLLFTEFEGHHHHHH | soluble
17 | MSLNNVIFSQKLYDTAQMIVDGCMGDADPACQTACPMHTDVKQYVRMAGEGNFQGALDLIRSKLFLPQTLGRICAHPCEASCRRNTEFGQPISVAGIKRFVAEKMDNQDHWDLNIAPLTNKHIAIVGAGPAGAQAAIELRRQGHEVTIYEKLDVYGGMMRVGIPEYRLPRDVIDFEYSYLAMLGIKTQFGVEIGKDISFDTLRSEHDAVILAHGAHVGSIIPLPGHDNDGVFSAVEYLKEISETRQFPRACKRVMVIGGGDVAMDCARSSWRIGASDVYQCSLESLESLPASQIEIDESLEEGVEFNAGWGPVAIEHENGKVTGITIKKVLSIFDEQGNFAPQYSEESKTISVDTVVFATGQIVADITDGALEQTRGGRYVVDKQTLASSLEDVFVAGDACGGNIVIEAMALGRKAAMSVERFLTARPLTEDRDFEQEYSYSSRLDVPLPKGTVDTPRLHGELRDAEERKQDFAQVDLGFTEEQIKQEASRCLQCSCKLCMTECIMMNDFSDCPKTIFSDFVNNKSMDPLLAYSCNACDQCTIVCPKDFPMKEMFLGARTDFVKANNGESPMPGHKAINMHQKLGFSKIFTMAKRAVSTKEGHHHHHH | not soluble
